Laboratory results taken from the DeepSol protein solubility set.

Assay: soluble on expression in E. coli; label from the status in PepcDB or PDB records

Sequence	soluble on expression in E. coli
MTKETTQHRSGERIARFADIEVLSYRADLFGTLTPKQRMLCYHLSEAALRGRDITTIQNCRYNLWVRSLMERIYTHLSKSERTDDFALLEEYLFCIWFANGIHHHYSGAKFIARFSPGFLRAALREAGVELEPEEQVLLERVLYDTDFLPKQTEQSGEEDIIKASSVNFYAPGITRAEAESHYKNLIEALPENEKSCPPSFGLNTRLIRSTSGELKDEVCCIDGLYGPAIEAVVASLEAAIPYTENEEQAACIRLLCDYYRTGDIRLYDRFCIRWVENNRTRIDFINGFTEVYADPIGIHGSWEGLVHMQDEEAGRRTRIISEHAGWFEAHSPIDARFRKKNPHGISATVVNVLTIAGDSYPATPIGINLPNADWIRAEHGSKSVTIDNITDAYNHAARGTGLYEEFIPDEEVRRHVELHADLTDSLHTDLHECLGHGSGQLLPGVPGDALGEHASTLEETRADLFALYFLADPKMIELGLLTDPDAYKANYYKYMLNGLMTQLVRIKRGEEIEEAHMRNRALIARYVLEHAERPGAMSLVCEEGKTALVIKDYEAVRAIIAGLLTEVQRIKSEGDYTAGKALVERYAVHVDPLLHEEVLTRYAKLDIAPYKGFVNPRLRPVYNSEGRLTDATIEYTEGYAEQMLRYSAEYSFLPTDSPLLQEARRLRSHLRRAMDGVLSASMREKGLHYGINFGVTREHLLRLARTADASAPLADYLWRRDVRETKILATMIFPAEELTHEQATRLLREADNVELREQLTANLLERMPEAIRSIGRWIESKETTPDMMTGVLTLAARLFTRGIFPEDVPAEKLLTLAILHLSDEEQKAELRRASALLLKRYGRGSAERTKKVLCLLPESSQDTAPVLYELCEDIRFELDFYPKDE	not soluble
MAHHHHHHMLKRYERTKLNVLRGERFLRLCEVSYRAVCRDPSLGGAEGIANIEDRTWEMVQRTFQASPERCSLKNAPFSVDGVEICALLRRPDNVFLILVAQYRPPVDAVVLEFPAGLVDNGEDVKSAALRELKEETGYVATEENIISVTDALCCEPGMTDSCCKFVRLFVDGEKEVNRFPQQELDEGEDIEVILLPISLKKGVAGGDTPLQSLNKLLHEKNKGQQRNIVDAKLYMFLDGLSQMSTMFC	soluble
MEPEDTQLKEDIKTTVNYIKQHGVEFENKLLEDERFSFIKKDDPLHEYYTKLMNEPTDTVSGEDNDRKSEREIARPPDFLFSQYDTGISRRDMEVIKLTARYYAKDKSIVEQMISKDGEARLNFMNSSHPLHKTFTDFVAQYKRVYSFTGQEIKKSKRTILDNCFERTQYWEFEKDKDREHDKLVELCKIQFAAIPWDKFTQVAKFSIPEDTEIFEGSLDLEQMRLRRVQTGIKLFDSIKPTNEEEKIVSDQGKQKGGDSKGKKRKIRAVGETRLKKSKK	soluble
MGSDKIHHHHHHMNELNCLPQDAVLWGHDILPAATASLEAHGLRHPLTFTVEPLRDFHAQHVAPYLKRGAGAFTDLPPHAPDTGVRCALDACLRAEADSILALGGGSVLDAAKAVSHLHQQQTGRYLPIAAYPTTLSGSEYSHYFGVTETVGPQPFKRSYAVRETVPKVVVIDPKLLVNTPRELLLSSAIKGIDHAVEGMRRVGVDHPHAILAAAGVERFFAVLEKWPAGTDTAEALRSGQITTDDLLQLQLAAWQCYFFPASVIYGLSHRIGHILGGTYGLPHSVTSCITLAPVLQACAATYGNKLNIFCHGETTADAAPALAGRIAGVVKRLGLPYRLRDLDFDRARLAQVAALLRQNYAAEVADLGDGADAMLHTFLERLW	not soluble
MNTCPLCHSTDLVAYHHDKRRPYQQCQRCALVSVPAEFYLSRDEEKAEYDKHENHPQDLGYQQFLDRTLAPLLARFESTALGLDFGCGEGKALSLMAQARGYRVENYDLYYANHPELLTRQYDFITLTEVIEHVSDADALLTQLKGMLKPKGILAVMTKRVLNPTAFSTWHYKNDPTHINFYAEATFQWLAEHYGWRLEVIDKDVVFLYQANLEHHHHHH	soluble
MSLDTDREQILAEFLSIDRTKVRRIEHHRCHAAYSYYASKYRNKPILALTVDGWGDGKDATIGIFDEKGKYSRVYESDQCAIGRIYRYMTLMLGMKPNEHEFKVMGLAPYGKETHAKKALDILRNTLYVDGEEFKWKEKPKDSYFWFKERFEGVRFDNIAFALQKWTEELLVEWVKNAINKYKIHDIVISGGVAMNIKAMGKIADLPEVKSLFIGGSASDESMAISSGICLAEDLTKESSREWNSNTIESLTRLYLGPSASLKEEERVVDGLDKKKFEIIENPENKRIAEVLFEGKILARAAGRMEFGQRALGNRSILADPIHLKIKEKINSAIKSRDFWMPFAPVVMDTFVERYLLNPKSLESPHMTLSFDTTEEGYDAMSAACHPADRTARAQILKEHDNPELYSLLKAFQHLTGRGALLNTSFNLHGFPIVNSPSEAVDVLVNSGLDGLILNYFLILKKEGHHHHHH	not soluble
